Data from the RNAGym collection of RNA variant scans (doi:10.1073/pnas.2313332121).

B1: TPR t1 (parent)
chain: GACCAAUCUGCCCUCAGAGCUCGAGAACAUCUUCGGAUGCAGAGGAGGCAGGCUUCGGUGGCGCGAUAGCGCCAACGUCCUCAACCUCCAAUGCAUCCCACCACAUGAUGAUGCCUGAAGAGCCUUGGUUUUUUG

Variants of: B1
Assay: polymerase ribozyme fitness, log enrichment relative to wild type (log ratio); higher = more active; in vitro selection for triplet polymerase activity
Method in brief: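 Fitness compares each genotype's enrichment to that of the wild type on a logarithmic scale, averaging replicates with inverse-variance weights. The logarithm is base 2. Enrichment came from Illumina sequencing of input and output libraries after one triplicate round of in vitro selection, which included frozen incubation at −7 °C, of PCR-built, transcribed mutant libraries of each subunit of a heterodimeric triplet polymerase ribozyme. Only genotypes with ≥10 input reads and ≥1 read per output were kept.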

Variant	polymerase ribozyme fitness (log ratio)
GACCAAUCUGUCCUCAGAGCUCGAGAACAUCUUCGGAUGGAGAGGAGGCAGGUUUCGGUGGUGCGAUAGCGCGAACGUACUCAACUUCCAAUGCAUCCCACCACAUGAUGAUGCCUGAAGAGCCUUGGUUUUUUG	-4.3
GACCAAUCUGUCCUCAGAGCUCGAGAACAUCUUCGGAUGUAGAGGAGGCAGGCUUCGGUGGCGCGAUAGCGCCAACGUCCUCAACCUCCAAUGCAUCCCACCACAUGAUGAUGCCUGAAGCGCCUUGGGUUUUUG	0.406
GACCAAUCUGUCCUCAGAGCUCGAGAACAUCUUCGGAUGUAGAGGAGGCAGGCUUCGGUGGCGCGAUAGCGCCAACGUCCUCAACCUCCAAUGCAUCCCACCACAUGAUGAUGCCUGAAAAGCCUUGGUUUUUUG	-0.013
GACCAAUCUGUCCUCAGAGCUCGAGAACAUCUUAGGAUGCAGAGGAGUCAGGCUUCGGUGGCGCGAUAGCGCCAACGUCCUCAACCACCAAUGCAUCCCACCACAUGAUGAUGCCUGAAGAGCCUUGGUUUUUUG	-5.34
GACCAAUCUGUCCUCAGAGCUCGAGAACAUCUUCGGAUGGAGAGGAGGCAGGCUUCGGUGGCGCGAUAGCGCCAACGUCCUUAACCUCCAAUGCAUCCCUCCACAUGAUGAUGCCUGAAGAGCCUUGGUUUUUUG	-4.42
GACCAAUCUGUCCUCAGAGCUCGAGAACAUCUUCGGAUGCAGAGGAGGGAGGCUUCGGUGUCGCGAUAGCGCCAACGUCCUCAACCUCCCAUGCAUCCCACCACAUGAUGAUGCCUGAAGAGCCUUGGUUUUUUG	-2.04
GACCAAUCUGUCCUCAGAGCUCGAGAACAUCUUUGGAUGCAGAGGAGGCAGGCUUCGGUGGCGCGAUAGCGCCAACGUCCUCAACGUCCAAUGCAUCCCACUACAUGAUGAUGCCUGAAGUGCCUUGGUUUUUUG	-1.28
GACCAAUCUGUCCUCAGAGCUCGAGAACAUCUUCGGAUGUAGAGGAGGCAGGCUUCGGUGGCGCGAUAGCGCCAACGUCCUCAACCUCCAAUGCAUCCCACCACAUGAUGAUGCCUGAAGAGCCUUGGUUUUUUG	-0.173
GACCAAUCUGUCCUCAGAGCUCGAGAACAUCUUCGGAUGGAGAGGAGUCAGGCUUCGGUGCCGCGAUAGCGCCAACGUCCUCAACCUCCAAUGCAUUCCACCACAUGAUGAUGCCUGAAUAGCCUUGGUUUUUUG	-4.02
GACCAAUCUGUCCUCAGAGCUCGAGAACAUCUUCGGAUGCAGAGGAGGGAGGCUUCGGUGGCGCGAUAGCGCCUACGUCCUCAACCUCCAAUGCAUCCCACCACAUGAUGAUGCCUGAAGAGGCUUGGUUUUUUG	0.499
GACCAAUCUGUCCUCAGAGCUCGAGAAGAUCUUCGGAUGCAGAGGAGGCAGGCUUCGGUGGCGCGAUAGCGCCAACGUCCUCAAACUCCAAUGCAUCCCACCAUAUGAUGAUCCCUGAAGAGCCUUGGUUUUUUG	-6.42
GACCAAUCUGUCCUCAGAGCUCGAGAAUAUCUUCGGAUGCAGAGUAGGCAGGCUUCGGUGUCGCGAUAGCGCCAACGUCCUCAUCCUCCAAUGCAUCCCAACACAUGAUGAUGCCUGAAGAGCCUUGGUUUUUUG	-5.59
GACCAAUCUGUCCUCAGAGCUCGAGAACAUCUUCGGAUGCAGAGGAGGGAGGCUUCGGUGGCGCGAUAGCGCCAACGUCCUCAACCUCCAAUGCCUCCCACCACAUGAUGAUGCCUGAAGAGCCUUGGUUUUUUG	-2.54
GACCAAUCUGUCCUCAGAGCUCGAGAACAUCUUCGGAUGCAGAGGAGGGAGGCUUCGGUGGCGCGAUAGCGCCAACGUCCUCAACCUCCAAUGCAUCCCACCACAUGAUGAUGCCUGAAGAGCCUUGGUUUUUUG	-1.44
GACCAAUCUGUCCUCAGAGCUCGAGAACAUCUUCGGAUGGAGAGGAGGCAGGUUUCGGUGGCGCGAUAGCGCGAACGUACUCAACUUCCAAUGCAUCCCACCACAUGAUGAUGCCUGAAGAGCCUUGGUUUUUUG	-4.32
GACCAAUCUGUCCUCAGAGCUCGAGAACAUUUUCGGAUGCAGAGGAGGCAGGCUUCGGUGGCGCGAUAGCGCCAACGUCCUCAACCUCCAAUGCAUCCCACCACAUGAUGAUGCCUGAAGAGCCUUGGUUUUUUG	-4.93
GACCAAUCUGUCCUCAGAGCUUGAGAACAUCUUCGGAUGCAGAGGAGGCAGGCUCUGGUGGCGCGUUAGCGCCAACGUCCUCAACCUCCAAUGCAUCCCACCACAUGAUGAUGCCUGAAGAGCCUUGGUUUUUUG	-6.04
GACCAAUCUGUCCUCAGAGCUCGAGAACAUCUUCGGAUGUAGAGGAGGCAGGCUUCGGUGGCGCGAUAGCGCCAACGUCCUCAACCUCCAAUGCAUCCCAACACAUGAUGAUGCCUGAAGAGCCUUGGUUUUUUG	-2.4
GACCAAUCUGUCCUCAGAGCUCGAGAAAAUCUUCGGAUGCAGAGGAGGCAGGCUUCGGUGGCGCGAUAGCGCCAACGUCCUCAACCUCCAAUGCAUCCCACCACAUGAUGAUGCCUGAAGAGCCUUGGUUUUUUG	-3.2
GACCAAUCUGUCCUCAGAGCUCGAGAAUAUCUUCGGAUGCAGAGGAGGCAGGCUUCGGUGGCGCGAUAGCGCCAACGUCCUCAACCUCCAAUGCAUCCCACCACAUGAUGAUGCCUGAAGAGCCUUGGUUUUUUG	-1.61
GACCAAUCUGUCCUCAGAGCUCGAGAACAUCUUCGGAUGCAGAGGAGGAAGGCUUCGGUGGCGCGAUAGCGCCAACGUCCUCAACCUCCAAUGCAUCCCACCACAUUAUGAUCCCUGAAGAGCCUUGGUUUUUUG	-6.14
